Source: publication PMC13454268 (Nature Communications, 2026)

How the values were obtained:
[1] = biological target: Ammonifex degensii KC4 form Iβ rubisco (Ammonifex degensii KC4); experiment: SEC-SAXS; 100 µl samples, 1-45 mg/ml rubisco incubated with or without CABP; Shodex KW804 column; 20 mM HEPES-OH pH 8.0, 300 mM NaCl, 10 mM MgCl2, 10 mM NaHCO3; 20 °C; molecular weight by volume of correlation
[2] = biological target: Prometheoarchaeum syntrophicum rubisco (Prometheoarchaeum syntrophicum); experiment: as above
[3] = biological target: Fervidicoccus fontis form Iβ rubisco (Fervidicoccus fontis); experiment: as above
[4] = biological target: Thermodesulfobium acidiphilum form Iβ rubisco (Thermodesulfobium acidiphilum); experiment: as above
[5] = biological target: Rhodopseudomonas faecalis form II rubisco (Rhodopseudomonas faecalis); experiment: as above
[6] = biological target: T1, R. rubrum rubisco (Rhodospirillum rubrum, UniProt P04718); experiment: […]-CABP binding, liquid scintillation (active-site count); details: activated enzyme; labelled compound
T1 construct: gene cbbM; form II large subunit, L2 homodimer
T1 sequence (P04718 1-466): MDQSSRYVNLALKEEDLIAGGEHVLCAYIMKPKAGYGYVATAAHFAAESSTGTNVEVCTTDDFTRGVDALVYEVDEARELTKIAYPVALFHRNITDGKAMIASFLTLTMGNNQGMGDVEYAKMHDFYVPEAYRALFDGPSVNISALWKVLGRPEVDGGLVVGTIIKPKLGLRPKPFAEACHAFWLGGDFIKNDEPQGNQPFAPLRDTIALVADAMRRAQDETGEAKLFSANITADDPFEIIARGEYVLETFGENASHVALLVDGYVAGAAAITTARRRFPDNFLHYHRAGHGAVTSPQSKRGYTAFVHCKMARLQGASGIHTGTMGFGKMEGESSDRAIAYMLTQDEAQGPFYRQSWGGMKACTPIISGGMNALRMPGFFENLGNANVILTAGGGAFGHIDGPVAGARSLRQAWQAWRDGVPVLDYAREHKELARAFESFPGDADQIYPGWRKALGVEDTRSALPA

Q: With “Ammonifex degensii KC4 form Iβ rubisco (enzyme)” as the compound, how does the stoichiometry N [1] read?
A: 2

Q: Which stoichiometry N [2] does the source give for “Prometheoarchaeum syntrophicum rubisco (enzyme)” here?
A: 2

Q: For “Fervidicoccus fontis form Iβ rubisco (enzyme)”, which stoichiometry N [3] is on record?
A: 2

Q: “Thermodesulfobium acidiphilum form Iβ rubisco (enzyme)” was tested. Which stoichiometry N [4] did it give?
A: 2

Q: “Rhodopseudomonas faecalis form II rubisco (enzyme)” was tested. Which stoichiometry N [5] did it give?
A: 6

Q: Which “14C-CABP binding, liquid scintillation (active-site count)” value [6] does the source give for `O=C(O)[C@@](O)(COP(=O)(O)O)[C@H](O)[C@H](O)COP(=O)(O)O` [CABP] here?
A: An aliquot of activated R. rubrum was used for determination of rubisco active sites
